Where a chain is given by its changes, count along the chain named.
How the values were obtained:
Experiment in all cases: AUC; sedimentation velocity of 75 µM equimolar mixtures of Gag-NtD and Env peptide, absorbance at 280 nm; bound fraction from the integrated absorbance of the 3S species in C(S)
Conditions in all cases: both partners purified
[1] = biological target: T1, PFV-Gag-NtD (amino terminal domain of Prototypic Foamy Virus Gag, residues 1-179) (Prototypic foamy virus (PFV), UniProt P14349 1-179)
T1 construct: source: E. coli Rosetta 2 (DE3), purified (Ni-NTA, Superdex 200 SEC); not shown: His-tag, N-terminal, kept
T1 sequence: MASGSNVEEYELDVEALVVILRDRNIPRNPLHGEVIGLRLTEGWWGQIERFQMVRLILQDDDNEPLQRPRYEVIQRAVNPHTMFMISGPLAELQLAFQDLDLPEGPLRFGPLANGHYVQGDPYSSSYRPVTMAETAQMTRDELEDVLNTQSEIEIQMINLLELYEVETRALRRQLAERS

PFV-Gag-NtD V14S/V18S = biological target: T2, PFV-Gag-NtD V14S/V18S (Prototypic foamy virus (PFV), UniProt P14349 1-179, V14S | V18S)
T2 construct: Gag of Prototypic Foamy Virus, residues 1-179 (Gag-NtD) with V14S and V18S
T2 sequence (looked up): T1 sequence with V14S, V18S

PFV-Gag-NtD V14S/L21S = biological target: T3, PFV-Gag-NtD V14S/L21S (Prototypic foamy virus (PFV), UniProt P14349 1-179, V14S | L21S)
T3 construct: Gag of Prototypic Foamy Virus, residues 1-179 (Gag-NtD) with V14S and L21S; also called Val14/Leu21 to serine
T3 sequence (looked up): T1 sequence with V14S, L21S

PFV-Gag-NtD V18S/L21S = biological target: T4, PFV-Gag-NtD V18S/L21S (Prototypic foamy virus (PFV), UniProt P14349 1-179, V18S | L21S)
T4 construct: Gag of Prototypic Foamy Virus, residues 1-179 (Gag-NtD) with V18S and L21S
T4 sequence (looked up): T1 sequence with V18S, L21S

PFV-Gag-NtD V14S = biological target: T5, PFV-Gag-NtD V14S (Prototypic foamy virus (PFV), UniProt P14349 1-179, V14S)
T5 construct: Gag of Prototypic Foamy Virus, residues 1-179 (Gag-NtD) with V14S
T5 sequence (looked up): T1 sequence with V14S

PFV-Gag-NtD L17S = biological target: T6, PFV-Gag-NtD L17S (Prototypic foamy virus (PFV), UniProt P14349 1-179, L17S)
T6 construct: Gag of Prototypic Foamy Virus, residues 1-179 (Gag-NtD) with L17S
T6 sequence (looked up): T1 sequence with L17S

PFV-Gag-NtD V18S = biological target: T7, PFV-Gag-NtD V18S (Prototypic foamy virus (PFV), UniProt P14349 1-179, V18S)
T7 construct: Gag of Prototypic Foamy Virus, residues 1-179 (Gag-NtD) with V18S
T7 sequence (looked up): T1 sequence with V18S

PFV-Gag-NtD L21S = biological target: T8, PFV-Gag-NtD L21S (Prototypic foamy virus (PFV), UniProt P14349 1-179, L21S)
T8 construct: Gag of Prototypic Foamy Virus, residues 1-179 (Gag-NtD) with L21S
T8 sequence (looked up): T1 sequence with L21S

B1: PFV Env leader peptide residues 1-20 (peptide, UniProt P14351 1-20, looked up)
peptide: MAPPMTLQQWIIWKKMNKAH
notes: Envelope (Env) protein of Prototypic Foamy Virus, N-terminal leader peptide region, residues 1-20 (Met1 to His20); the text names M1, A2, P3, P4, M5, T6, L7, Q9, W10, W13, M16, A19, H20; also called Env_(1-20); Env(1-20); source: synthetic peptide, bought HPLC purified: Pepceuticals Ltd
Ka [1]: 130000 M⁻¹
binding result (PFV-Gag-NtD V14S/V18S): binds
fold reduction in binding against wt PFV-Gag-NtD (PFV-Gag-NtD V14S/L21S): ~20 fold
binding result (PFV-Gag-NtD V18S/L21S): binds
binding result (PFV-Gag-NtD V14S): binds
fold decrease of affinity against wt PFV-Gag-NtD (PFV-Gag-NtD L17S): 2 fold
fold decrease of affinity against wt PFV-Gag-NtD (PFV-Gag-NtD V18S): 2 fold
fold decrease of affinity against wt PFV-Gag-NtD (PFV-Gag-NtD L21S): 5 fold
